Data on seven proteins can be found in FireProtDB.

Where “and” joins values, the source holds several entries; their conditions need not be identical. Equal entries are not always repeated.

The conditions of this data set: whole UniProt chain shown; for Tm / unfolding enthalpy (calorimetric): Thermal.
[1] abbreviates: Pseudomonas aeruginosa (strain ATCC 15692 / DSM 22644 / CIP 104116 / JCM 14847 / LMG 12228 / 1C / PRS 101 / PAO1), pH 7, 20 °C, GdnHCl, CD, phosphate 5 mM, reversible: yes.
The mark [2] stands for this setting: Pseudomonas aeruginosa (strain ATCC 15692 / DSM 22644 / CIP 104116 / JCM 14847 / LMG 12228 / 1C / PRS 101 / PAO1), pH 8, DSC, Tris-HCl 10 mM, NaCl 200 mM, reversible: yes.
Setting [3] is: Notophthalmus viridescens, pH 7.2, 25 °C, GdnHCl, CD, Phosphate 100 mM.
The mark [4] stands for this setting: Mus musculus, pH 4, 25 °C, GdnHCl, CD, Sodium acetate 10 mM, reversible: yes.
Where [5] appears, read: Mus musculus, pH 4, 25 °C, Urea, CD, Sodium acetate 10 mM, reversible: yes.
[6] abbreviates: Mus musculus, pH 7.4, 25 °C, Urea, CD, Tris-HCl 10 mM, reversible: yes.
Setting [7] is: Manduca sexta, pH 7, 25 °C, GdnHCl, CD, Potassium phosphate 50 mM, reversible: yes.

What is called Tm is the temperature at the midpoint of the melting transition.

B1: Azurin wild type, P00282 (protein)
chain: MLRKLAAVSLLSLLSAPLLAAECSVDIQGNDQMQFNTNAITVDKSCKQFTVNLSHPGNLPKNVMGHNWVLSTAADMQGVVTDGMASGLDKDYLKPDDSRVIAHTKLIGSGEKDSVTFDVSKLKEGEQYMFFCTFPGHSALMKGTLTLK
For B1, under setting [1], the denaturant m value is 4.18 kcal/mol/M, the “denaturant midpoint (higher = more stable)” value (“denaturant midpoint” below) amounted to 1.7 M and the unfolding free energy was 6.96 kcal/mol. Moreover, the unfolding free energy (Pseudomonas aeruginosa (strain ATCC 15692 / DSM 22644 / CIP 104116 / JCM 14847 / LMG 12228 / 1C / PRS 101 / PAO1), pH 7.5, 40 °C, GdnHCl, Fluorescence, Tris Cl 2 mM, reversible: Yes) was 8.6 kcal/mol. Also, under setting [2], the Tm turned out to be 62 °C and the “unfolding enthalpy (calorimetric)” value came out at 165 kcal/mol.

B2: Harpin HrpZ wild type, P35674 (protein)
chain: MQSLSLNSSSLQTPAMALVLVRPEAETTGSTSSKALQEVVVKLAEELMRNGQLDDSSPLGKLLAKSMAADGKAGGGIEDVIAALDKLIHEKLGDNFGASADSASGTGQQDLMTQVLNGLAKSMLDDLLTKQDGGTSFSEDDMPMLNKIAQFMDDNPAQFPKPDSGSWVNELKEDNFLDGDETAAFRSALDIIGQQLGNQQSDAGSLAGTGGGLGTPSSFSNNSSVMGDPLIDANTGPGDSGNTRGEAGQLIGELIDRGLQSVLAGGGLGTPVNTPQTGTSANGGQSAQDLDQLLGGLLLKGLEATLKDAGQTGTDVQSSAAQIATLLVSTLLQGTRNQAAA
For the protein B2, the “unfolding enthalpy (calorimetric)” value (Pseudomonas syringae pv. syringae, pH 7.5, CD, Sodium phosphate 5mM) was 33.8 kcal/mol and 58.3 kcal/mol.

B3: wild type, P95467 (protein)
chain: MKKALIASTALLLTAGVAAADVKISGYGRTGVIYYENDSDVNESRVQSRLRMNIDASSSTDSGVDFGARFRLQWDQGEEGEAQTNAGKLWVSAQGFTVEVGNVDTAFASNGLIYETGLGSYDRSVGFSAVTGAFFAYDSNGYGIDEVDRVGIRALYTLGDLTLQASYVDPDQSGTVIGVEEEFGFSVDYTWNERLELSAAAAFNGAGIDGNDIYFLGARYAVMDNARIGLNFVDAGDEEDGYDGKTIALYGDYTLADGRTNLEAYIANNDRDSNETDNAFGIGVNYDLGGARLGASLQRDYAENVTADFGVRFEF
Turning to B3, the Tm turned out to be 78.5 °C (Paracoccus denitrificans, pH 1.5, CD, Unknown, reversible: No); 82.6 °C (Paracoccus denitrificans, pH 4, CD, Unknown, reversible: No); 86.2 °C (Paracoccus denitrificans, pH 8, Absorbance, Tris-HCl 50 mM, NaCl 100 mM, reversible: no); 86.2 °C (Paracoccus denitrificans, pH 8, CD, Unknown, reversible: No); 86.2 °C (Paracoccus denitrificans, pH 10, CD, Unknown, reversible: No).

B4: Fibroblast growth factor 1 wild type, Q7SIF8 (protein)
chain: QKPKLLYCSNGGYFLRIFPDGKVDGTRDRSDPYIQLQFYAESVGEVYIKSLETGQYLAMDSDGQLYASQSPSEECLFLERLEENNYNTYKSKVHADKDWFVGIKKNGKTKPGSRTHFGQKAILFLPLPVSSD
On to B4, for which, under setting [3], the denaturant m value was 3.8 kcal/mol/M, the “denaturant midpoint” value is 1.6 M and the unfolding free energy was determined as 6.1 kcal/mol.

B5: Interleukin-6 wild type, P08505 (protein)
chain: MKFLSARDFHPVAFLGLMLVTTTAFPTSQVRRGDFTEDTTPNRPVYTTSQVGGLITHVLWEIVEMRKELCNGNSDCMNNDDALAENNLKLPEIQRNDGCYQTGYNQEICLLKISSGLLEYHSYLEYMKNNLKDNKKDKARVLQRDTETLIHIFNQEVKDLHKIVLPTPISNALLTDKLESQKEWLRTKTIQFILKSLEEFLKVTLRSTRQT
Turning to B5, the denaturant m value by setting is: under setting [4], 0.7 kcal/mol/M; under setting [5], 1.9 kcal/mol/M; under setting [6], 0.7 kcal/mol/M. Also, the “denaturant midpoint” value runs as follows: under setting [4], 2.7 M; under setting [5], 3.6 M; under setting [6], 4.8 M. Moreover, the unfolding free energy runs as follows: under setting [4], 1.8 kcal/mol; under setting [5], 6.9 kcal/mol; (Mus musculus, pH 4, 25 °C, Urea, CD, Sodium acetate 10 mM) 6.8 kcal/mol; (Mus musculus, pH 4, 25 °C, Urea, Fluorescence, sodium acetate 0.5 M) 6 kcal/mol; under setting [6], 3.4 kcal/mol.

B6: cAMP-dependent protein kinase type I-beta regulatory subunit wild type, P12849 (protein)
chain: MASPSCFHSEDEDSLKGCEMYVQKHGIQQVLKECIVHLCVAKPDRPLRFLREHFEKLEKEENRQILARQKSNSQCDSHDEEISPTPPNPVVKARRRRGGVSAEVYTEEDAVSYVRKVIPKDYKTMTALAKAISKNVLFSHLDDNERSDIFDAMFPVTHIGGETVIQQGNEGDNFYVIDQGEVDVYVNGEWVTNISEGGSFGELALIYGTPRAATVKAKTDLKLWGIDRDSYRRILMGSTLRKRKMYEEFLSKVSILESLEKWERLTVADALEPVQFEDGEKIVVQGEPGDDFYIITEGTASVLQRRSPNEEYVEVGRLGPSDYFGEIALLLNRPRAATVVARGPLKCVKLDRPRFERVLGPCSEILKRNIQRYNSFISLTV
For the protein B6, the unfolding free energy turned out to be 7.2 kcal/mol (Mus musculus, pH 7, 23 °C, GdnHCl, Fluorescence, MOPS 5 mM, KCl 100 mM, reversible: yes) and 7 kcal/mol (Mus musculus, pH 7, 23 °C, Urea, Fluorescence, MOPS 5 mM, KCl 100 mM, reversible: yes).

B7: Apolipophorin-3 wild type, P13276 (protein)
chain: MAAKFVVVLAACVALSHSAMVRRDAPAGGNAFEEMEKHAKEFQKTFSEQFNSLVNSKNTQDFNKALKDGSDSVLQQLSAFSSSLQGAISDANGKAKEALEQARQNVEKTAEELRKAHPDVEKEANAFKDKLQAAVQTTVQESQKLAKEVASNMEETNKKLAPKIKQAYDDFVKHAEEVQKKLHEAATKQ
B7: under setting [7], the denaturant m value came to 3.65 kcal/mol/M, the “denaturant midpoint” value amounted to 0.36 M and the unfolding free energy came out at 1.29 kcal/mol. Moreover, the Tm (Manduca sexta, pH 7, CD, Potassium phosphate 50 mM, reversible: yes) is 52 °C.
